Assay results reported in article PMC9482650, “Quantitative fragmentomics allow affinity mapping of interactomes” (Nature Communications, 2022).

Assays:
Assay in all cases: holdup assay
Set-up in all cases: key: below the threshold = too weak to quantify, mostly under pKd 3.1 to 4
MPDZ_12, O75970 = target: T1, MPDZ_12, O75970
T1 sequence (O75970 1857-1958, limits assumed, looked up): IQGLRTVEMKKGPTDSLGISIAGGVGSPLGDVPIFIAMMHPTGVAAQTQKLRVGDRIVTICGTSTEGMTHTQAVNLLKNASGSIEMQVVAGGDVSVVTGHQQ

ARHGAP21, Q5T5U3 = target: T2, ARHGAP21, Q5T5U3
T2 sequence (Q5T5U3 45-169, limits assumed, looked up): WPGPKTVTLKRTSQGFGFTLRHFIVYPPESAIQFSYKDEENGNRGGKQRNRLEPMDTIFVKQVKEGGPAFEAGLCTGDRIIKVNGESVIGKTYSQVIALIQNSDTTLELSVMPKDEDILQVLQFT

MAST2, Q6P0Q8 = target: MAST2, Q6P0Q8
IL16_3, Q14005 = target: IL16_3, Q14005
Inadl_5, Q8NI35 = target: Inadl_5, Q8NI35
CASK, O14936 = target: CASK, O14936
MPP2, Q14168 = target: T3, MPP2, Q14168
T3 sequence (Q14168 180-250, limits assumed, looked up): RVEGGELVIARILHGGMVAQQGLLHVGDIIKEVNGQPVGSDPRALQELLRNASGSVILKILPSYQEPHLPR

PCLO, Q9Y6V0 = target: T4, PCLO, Q9Y6V0
T4 sequence (Q9Y6V0 4491-4600, limits assumed, looked up): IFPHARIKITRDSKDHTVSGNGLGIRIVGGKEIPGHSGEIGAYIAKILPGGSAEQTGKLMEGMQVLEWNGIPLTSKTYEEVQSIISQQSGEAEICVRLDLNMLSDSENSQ

LIN7B, Q9HAP6 = target: T5, LIN7B, Q9HAP6
T5 sequence (Q9HAP6 88-185, limits assumed, looked up): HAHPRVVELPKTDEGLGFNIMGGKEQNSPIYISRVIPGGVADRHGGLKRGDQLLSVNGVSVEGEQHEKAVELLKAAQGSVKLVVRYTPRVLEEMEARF

APBA3_1, O96018 = target: T6, APBA3_1, O96018
T6 sequence (O96018 389-490, limits assumed, looked up): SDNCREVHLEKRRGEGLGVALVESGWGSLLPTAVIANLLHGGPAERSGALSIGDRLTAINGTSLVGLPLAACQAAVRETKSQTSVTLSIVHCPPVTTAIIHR

ARHGEF12, Q9NZN5-2 = target: ARHGEF12, Q9NZN5-2
DLG5_1, Q8TDM6 = target: DLG5_1, Q8TDM6
Inadl_2, Q8NI35 = target: Inadl_2, Q8NI35
LRRC7, Q96NW7 = target: T7, LRRC7, Q96NW7
T7 sequence (Q96NW7 1440-1537, limits assumed, looked up): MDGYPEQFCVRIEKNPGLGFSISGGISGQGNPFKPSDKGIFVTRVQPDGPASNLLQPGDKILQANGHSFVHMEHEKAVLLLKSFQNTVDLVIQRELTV

NHERF4_2, Q86UT5 = target: NHERF4_2, Q86UT5
GRIP2_4, Q9C0E4 = target: GRIP2_4, Q9C0E4
MAGI1_1, Q96QZ7 = target: MAGI1_1, Q96QZ7
FRMPD4, Q14CM0 = target: FRMPD4, Q14CM0
SHANK1, Q9Y566 = target: T8, SHANK1, Q9Y566
T8 sequence (Q9Y566 658-767, limits assumed, looked up): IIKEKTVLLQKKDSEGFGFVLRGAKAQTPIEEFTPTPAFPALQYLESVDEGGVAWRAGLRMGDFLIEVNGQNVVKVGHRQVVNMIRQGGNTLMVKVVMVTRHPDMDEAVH

PTPN3, P26045 = target: PTPN3, P26045
TJP1_2, Q07157 = target: TJP1_2, Q07157
PICK1, Q9NRD5 = target: PICK1, Q9NRD5
Inadl_10, Q8NI35 = target: Inadl_10, Q8NI35
PTPN13_1, Q12923 = target: T9, PTPN13_1, Q12923
T9 sequence (Q12923 1088-1188, limits assumed, looked up): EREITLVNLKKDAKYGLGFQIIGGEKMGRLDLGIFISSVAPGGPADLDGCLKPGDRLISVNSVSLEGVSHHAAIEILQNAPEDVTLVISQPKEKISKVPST

HTRA1, Q92743 = target: HTRA1, Q92743
ARHGEF11, O15085 = target: T10, ARHGEF11, O15085
T10 sequence (O15085 42-136, limits assumed, looked up): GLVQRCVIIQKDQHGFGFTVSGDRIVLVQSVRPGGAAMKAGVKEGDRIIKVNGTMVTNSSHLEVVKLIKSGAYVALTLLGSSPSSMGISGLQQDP

RADIL, Q96JH8 = target: T11, RADIL, Q96JH8
T11 sequence (Q96JH8 971-1071, limits assumed, looked up): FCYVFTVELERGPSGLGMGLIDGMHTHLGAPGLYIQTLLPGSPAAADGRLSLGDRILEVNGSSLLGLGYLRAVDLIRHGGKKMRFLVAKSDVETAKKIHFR

[1] = plain residues with an end cap or a label only (N-terminal biotin on a linker: gsgsgs; C-terminal amide)
[2] = plain residues with an end cap or a label only (N-terminal biotin on a linker: ttds)

Measured: pKd

Chain of ARHGEF12, Q9NZN5-2 (Q9NZN5 other isoform, or with tags, fused parts or gaps): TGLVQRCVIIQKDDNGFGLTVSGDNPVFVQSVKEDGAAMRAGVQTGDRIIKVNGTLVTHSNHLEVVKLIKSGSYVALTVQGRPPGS
Chain of PICK1, Q9NRD5 (Q9NRD5 17-115): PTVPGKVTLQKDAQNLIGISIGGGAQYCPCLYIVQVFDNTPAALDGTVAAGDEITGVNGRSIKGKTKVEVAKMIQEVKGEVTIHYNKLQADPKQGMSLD
Chain of CASK, O14936 (O14936 487-570): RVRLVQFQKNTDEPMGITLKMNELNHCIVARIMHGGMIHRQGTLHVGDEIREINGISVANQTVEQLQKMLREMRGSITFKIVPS
Chain of MAST2, Q6P0Q8 (Q6P0Q8 1099-1202): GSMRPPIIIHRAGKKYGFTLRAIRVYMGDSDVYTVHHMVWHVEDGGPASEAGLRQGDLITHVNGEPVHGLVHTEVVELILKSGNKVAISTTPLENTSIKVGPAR
Chain of NHERF4_2, Q86UT5 (Q86UT5 220-308): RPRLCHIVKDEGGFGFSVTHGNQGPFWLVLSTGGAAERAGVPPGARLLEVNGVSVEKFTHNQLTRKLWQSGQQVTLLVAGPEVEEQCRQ
Chain of TJP1_2, Q07157 (Q07157 181-274): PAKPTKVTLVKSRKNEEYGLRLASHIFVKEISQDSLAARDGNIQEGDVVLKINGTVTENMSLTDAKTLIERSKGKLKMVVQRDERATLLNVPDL
Chain of PTPN3, P26045 (P26045 505-587): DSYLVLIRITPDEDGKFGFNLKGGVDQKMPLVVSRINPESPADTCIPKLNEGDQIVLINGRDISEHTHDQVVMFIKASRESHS
Chain of Inadl_2, Q8NI35 (Q8NI35 238-335): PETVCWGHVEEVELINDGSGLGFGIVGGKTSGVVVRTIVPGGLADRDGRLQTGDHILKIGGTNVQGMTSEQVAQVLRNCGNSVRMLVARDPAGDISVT
Chain of MAGI1_1, Q96QZ7 (Q96QZ7 1-106): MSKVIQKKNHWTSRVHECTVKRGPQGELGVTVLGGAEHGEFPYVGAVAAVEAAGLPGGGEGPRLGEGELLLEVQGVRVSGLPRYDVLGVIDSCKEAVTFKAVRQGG
Chain of Inadl_5, Q8NI35 (Q8NI35 673-780): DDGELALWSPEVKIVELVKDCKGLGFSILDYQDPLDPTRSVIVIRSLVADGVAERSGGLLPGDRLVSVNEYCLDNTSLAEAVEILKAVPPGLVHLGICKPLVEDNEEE
Chain of HTRA1, Q92743 (Q92743 360-477): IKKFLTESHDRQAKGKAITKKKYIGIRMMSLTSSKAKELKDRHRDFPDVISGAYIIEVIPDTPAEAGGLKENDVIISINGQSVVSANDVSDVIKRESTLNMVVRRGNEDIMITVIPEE
Chain of DLG5_1, Q8TDM6 (Q8TDM6 617-713): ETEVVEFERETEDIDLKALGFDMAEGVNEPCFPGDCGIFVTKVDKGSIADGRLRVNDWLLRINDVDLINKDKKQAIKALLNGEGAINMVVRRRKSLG
Chain of GRIP2_4, Q9C0E4 (Q9C0E4 446-548): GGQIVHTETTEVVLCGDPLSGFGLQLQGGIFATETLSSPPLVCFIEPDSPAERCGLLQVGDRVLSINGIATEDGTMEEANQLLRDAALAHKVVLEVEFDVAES
Chain of Inadl_10, Q8NI35 (Q8NI35 1673-1763): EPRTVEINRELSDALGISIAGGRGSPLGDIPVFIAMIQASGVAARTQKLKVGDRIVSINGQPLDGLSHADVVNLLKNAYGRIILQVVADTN
Chain of FRMPD4, Q14CM0 (Q14CM0 67-160): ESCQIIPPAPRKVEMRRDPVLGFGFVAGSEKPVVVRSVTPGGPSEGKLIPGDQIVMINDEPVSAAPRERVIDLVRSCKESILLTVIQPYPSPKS
Chain of IL16_3, Q14005 (Q14005 1107-1207): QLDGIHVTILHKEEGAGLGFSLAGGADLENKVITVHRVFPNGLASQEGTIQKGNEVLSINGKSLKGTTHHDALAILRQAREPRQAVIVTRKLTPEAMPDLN

B1: AXIN1_int, O15169 (peptide)
chain: TLSLTDSSVDGIPPYR
3.83: PTPN3, P26045; [1]
3.72: LIN7B, Q9HAP6; [1]
3.5: PTPN13_1, Q12923; [1]
below the threshold: ARHGAP21, Q5T5U3; [1] | MAST2, Q6P0Q8; [1] | IL16_3, Q14005; [1] | Inadl_5, Q8NI35; [1] | CASK, O14936; [1] | MPP2, Q14168; [1] | PCLO, Q9Y6V0; [1] | APBA3_1, O96018; [1] | ARHGEF12, Q9NZN5-2; [1] | DLG5_1, Q8TDM6; [1] | Inadl_2, Q8NI35; [1] | LRRC7, Q96NW7; [1] | NHERF4_2, Q86UT5; [1] | GRIP2_4, Q9C0E4; [1] | MAGI1_1, Q96QZ7; [1] | FRMPD4, Q14CM0; [1] | SHANK1, Q9Y566; [1] | TJP1_2, Q07157; [1] | PICK1, Q9NRD5; [1] | Inadl_10, Q8NI35; [1] | HTRA1, Q92743; [1] | ARHGEF11, O15085; [1] | RADIL, Q96JH8; [1]
3.55: MPDZ_12, O75970; [1]

B2: DLGAP4, Q9Y2H0 (peptide)
chain: IYVPEAQTRL
4.25: FRMPD4, Q14CM0; [2]
5.54: SHANK1, Q9Y566; [2]
below the threshold: MPDZ_12, O75970; [2] | ARHGAP21, Q5T5U3; [2] | IL16_3, Q14005; [2] | Inadl_5, Q8NI35; [2] | CASK, O14936; [2] | MPP2, Q14168; [2] | PCLO, Q9Y6V0; [2] | LIN7B, Q9HAP6; [2] | APBA3_1, O96018; [2] | DLG5_1, Q8TDM6; [2] | Inadl_2, Q8NI35; [2] | LRRC7, Q96NW7; [2] | NHERF4_2, Q86UT5; [2] | GRIP2_4, Q9C0E4; [2] | MAGI1_1, Q96QZ7; [2] | TJP1_2, Q07157; [2] | PICK1, Q9NRD5; [2] | Inadl_10, Q8NI35; [2] | PTPN13_1, Q12923; [2] | RADIL, Q96JH8; [2]
4.1: ARHGEF12, Q9NZN5-2; [2]
4.38: PTPN3, P26045; [2]
3.63: HTRA1, Q92743; [2]
3.7: ARHGEF11, O15085; [2]
6.16: MAST2, Q6P0Q8; [2]

B3: HPV16-E6, P03126 (peptide)
chain: SSRTRRETQL
3.91: LIN7B, Q9HAP6; [2]
3.83: FRMPD4, Q14CM0; [2]
3.65: RADIL, Q96JH8; [2]
4.92: ARHGEF12, Q9NZN5-2; [2]
below the threshold: MPDZ_12, O75970; [2] | ARHGAP21, Q5T5U3; [2] | IL16_3, Q14005; [2] | Inadl_5, Q8NI35; [2] | CASK, O14936; [2] | MPP2, Q14168; [2] | PCLO, Q9Y6V0; [2] | APBA3_1, O96018; [2] | DLG5_1, Q8TDM6; [2] | Inadl_2, Q8NI35; [2] | NHERF4_2, Q86UT5; [2] | GRIP2_4, Q9C0E4; [2] | TJP1_2, Q07157; [2] | PICK1, Q9NRD5; [2] | Inadl_10, Q8NI35; [2] | HTRA1, Q92743; [2]
4.15: ARHGEF11, O15085; [2]
3.5: MAGI1_1, Q96QZ7; [2]
3.56: PTPN13_1, Q12923; [2]
3.9: LRRC7, Q96NW7; [2]
3.68: SHANK1, Q9Y566; [2]
5.66: MAST2, Q6P0Q8; [2]
5.06: PTPN3, P26045; [2]
